{"source": "patent US20020048584A1", "about": "“Method of treating residual HIV-I disease” (priority 2000, published 2002)", "key": {"[1]": {"experiment": "Safety and tolerability of IL-2 and OKT3 stimulation therapy with hydroxyurea and ddI intensification in patients on HAART", "assay_type": "in vivo, human", "method": "Treatments with OKT3 and IL-2 are initiated with a physician present during a four to five day admission to the Bone Marrow Transplant Unit. The first dose of IL-2 is given 24 hours after infusion of OKT3, and continued for a total of fourteen days. After 72 hours, if the patient has no or mild adverse side-effects, then the patient can be discharged and followed in the Infectious Disease Clinic as an out-patient, continuing IL-2 administration at home. […] Of note, further treatments with OKT3 may not be possible due to the potential production of human anti-murine antibodies ([…]., et al., Transplant Rev. 5: 181-199, 1991). […] The NIAID standardized toxicity grading system will be utilized (Table 3). Toxicity is graded on a 1 to 4 scale. When toxicity is encountered the dose administered to subjects is modified. […] Level 2 dose reduction will include discontinuation from the study. For hydroxyurea, Level 1 dose reduction will be to 800 mg qday (400 mg po BID)."}, "CD4+ T-lymphocytes": {"system": "CD4+ T-lymphocytes", "conditions": "cited from earlier work"}, "[2]": {"conditions": "OKT3 over 5 to 15 minutes on first day, followed by IL-2; cited from earlier work"}, "T-lymphocytes": {"system": "T-lymphocytes", "conditions": "solid organ transplant subjects; cited from earlier work"}, "[3]": {"conditions": "in vivo; cited from earlier work"}}}
{"molecule": "O=c1[nH]cnc2c1ncn2[C@H]1CC[C@@H](CO)O1", "note": "[ddI, didanosine, reference compound]", "values": [{"measurement": "serious adverse side-effects", "setting": "[1]; patient #28, entire trial", "result": "did not have serious adverse side-effects"}]}
{"molecule": "NC(=O)NO", "note": "[hydroxyurea, reference compound]", "values": [{"measurement": "serious adverse side-effects", "setting": "[1]; patient #28, entire trial", "result": "did not have serious adverse side-effects"}]}
{"molecule": "IL-2: cytokine, 15,300 daltons, produced via recombinant DNA technology using genetically-engineered E. coli (Proleukin; Chiron)", "values": [{"measurement": "serious adverse side-effects", "setting": "[1]; human, in vivo", "result": "did not have serious adverse side-effects"}, {"measurement": "increase in CD4+ T-lymphocytes", "setting": "CD4+ T-lymphocytes; intravenous 18×10^6 IU per day, five-day treatments every two months, 6 cycles, baseline CD4+ greater than 200 cells/mm^3", "result": "approximately 400 cells per mm3"}, {"measurement": "CD4+ T-lymphocyte count, mean value after treatment", "setting": "CD4+ T-lymphocytes; subcutaneous, 5 day courses every 8 weeks for 6 cycles, starting 7.5×10^6 IU bid, mean 355 at entry", "result": 739}]}
{"molecule": "OKT3: purified murine monoclonal antibody (IgG2a) directed to the CD3 antigen of human T-lymphocytic cells", "values": [{"measurement": "serious adverse side-effects", "setting": "[1]; human, in vivo", "result": "did not have serious adverse side-effects"}, {"measurement": "maximum tolerated dose (MTD)", "setting": "[2]", "result": 400, "unit": "μg/m^2"}, {"measurement": "time to return of T-cell function to baseline levels after termination", "setting": "T-lymphocytes", "result": "one"}, {"measurement": "chest pain, patients", "setting": "[3]", "result": 14, "unit": "%"}, {"measurement": "dyspnea, patients", "setting": "[3]", "result": 21, "unit": "%"}, {"measurement": "headache, patients", "setting": "[3]", "result": 11, "unit": "%"}, {"measurement": "hypertension, patients", "setting": "[3]", "result": 8, "unit": "%"}, {"measurement": "nausea, patients", "setting": "[3]", "result": 19, "unit": "%"}, {"measurement": "rigor, patients", "setting": "[3]", "result": 8, "unit": "%"}, {"measurement": "tachycardia, patients", "setting": "[3]", "result": 10, "unit": "%"}, {"measurement": "tremor, patients", "setting": "[3]", "result": 13, "unit": "%"}, {"measurement": "vomiting, patients", "setting": "[3]", "result": 19, "unit": "%"}, {"measurement": "wheezing, patients", "setting": "[3]", "result": 13, "unit": "%"}]}
